In US20240287172A1 (SCIRHOM, published 2024):
Numbering of substitutions follows the chain as printed.

Molecular target: T1, hiR2-FL-P533-T7 (deletion of P533) (human, UniProt Q6PJF5 1-856)
T1 construct: single residue deletion, not a substitution; on MEF-DKO cells
T1 sequence: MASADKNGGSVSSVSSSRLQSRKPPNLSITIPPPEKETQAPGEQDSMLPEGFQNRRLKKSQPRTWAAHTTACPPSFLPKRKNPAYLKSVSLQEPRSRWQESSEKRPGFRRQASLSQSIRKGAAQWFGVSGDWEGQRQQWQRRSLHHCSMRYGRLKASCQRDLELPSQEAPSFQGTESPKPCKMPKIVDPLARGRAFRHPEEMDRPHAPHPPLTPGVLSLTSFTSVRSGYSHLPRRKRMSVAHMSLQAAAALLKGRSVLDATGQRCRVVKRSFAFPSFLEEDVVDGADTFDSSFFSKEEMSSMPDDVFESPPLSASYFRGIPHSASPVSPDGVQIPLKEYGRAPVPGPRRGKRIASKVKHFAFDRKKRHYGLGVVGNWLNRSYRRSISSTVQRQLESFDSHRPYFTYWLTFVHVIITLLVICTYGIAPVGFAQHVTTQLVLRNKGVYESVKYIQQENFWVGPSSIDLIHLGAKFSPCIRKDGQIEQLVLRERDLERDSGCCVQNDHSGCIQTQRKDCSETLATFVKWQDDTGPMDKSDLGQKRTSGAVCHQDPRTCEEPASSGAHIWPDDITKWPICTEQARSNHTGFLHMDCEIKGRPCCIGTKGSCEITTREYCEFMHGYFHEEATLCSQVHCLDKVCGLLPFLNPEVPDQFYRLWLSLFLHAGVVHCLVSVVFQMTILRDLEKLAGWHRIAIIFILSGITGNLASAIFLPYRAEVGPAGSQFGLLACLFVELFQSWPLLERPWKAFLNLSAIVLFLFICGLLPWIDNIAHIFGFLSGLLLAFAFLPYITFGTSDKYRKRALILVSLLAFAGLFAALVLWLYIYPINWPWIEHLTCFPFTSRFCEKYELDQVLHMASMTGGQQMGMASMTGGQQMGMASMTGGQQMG
Assay: FACS on MEF-DKO cells

B1: antibody 16 (antibody, V domains shown)
VH: QVTLKESGPGILQPSQTLSLTCSFSGFSLSTFALGVGWIRQPSGRGLEWLAHIWWDDDKYYNPALKSRLTISKDTSKNHVFLKIANVDTADTATYYCARITTYYYGMDYWGQGTSVTVSS
VL: DIVLSQSPATLSVTPGDSVSLFCRASQSIGNHLHWYQQESHASPRLLIKYASQSISGIPSRFSGSGSGTDFTLSINSVETEDFGMYFCQQSYNWPLTFGAGTKLELK
notes: mouse IgG, kappa light chain; also called clone #16; purified antibody 16
B1: no binding (tested: 3 µg/ml).

B2: antibody 5 (antibody, V domains shown)
VH: QVTLKESGPGILQPSQTLSLTCSFSGFSLSTFGMGVGWIRQPSGKGLEWLAHIWWDDEKYYNSALKSRLTISKATSKNQAFLKIANVDTADTATYYCARISNYGSNYWYFNVWGTGTTVTVSS
VL: QVVLTQSPALMSASPGEKVTMTCSAGSSVSCMYWYQQKPGSSPRVLIYDTSNLASGVPARFTGSGSGTSYSLTISRMEAEDAASYYCQQWNSYPLTFGAGTKLELK
notes: mouse IgG, kappa light chain; also called clone #5; purified antibody 5
B2: no binding (tested: 3 µg/ml).

B3: antibody 22 (antibody, V domains shown)
VH: B2 VH with A80V
VL: B2 VL with C31Y, S84T
notes: mouse IgG, kappa light chain; also called clone #22; purified antibody 22
B3: no binding (tested: 3 µg/ml).

B4: antibody 42 (antibody, V domains shown)
VH: B2 VH with F24L, M34R, S63P, A74D, A80V, K83R, S101Q, N111D
VL: LIVLTQSPAIMSASPGEKVTMTCGATSRISYMFWYQQKPGSSPRVLIYDTSNLASGVPVRFSGSGSGTSYSLTISRVEAEDVATYYCQQWNSYPLTFGAGTKLELK
notes: mouse IgG, kappa light chain; also called clone #42; purified antibody 42
B4: no binding (tested: 3 µg/ml).

B5: antibody 3 (antibody, V domains shown)
VH: QVTLKESGPGILQPSQTLSLTCSFSGFSLTTFAMGIGWVRQPSGKGLEWLAHIWWDGEKYNNPVLKSRLTISKDTSKNQVFLRIANVDTPDTATYYCARISSIYYIIDNWGQGTSVTVSS
VL: B1 VL with S5T, D17H, F22S, G30S, H32N, Q38K, E39K, A42E, A51V
notes: mouse IgG, kappa light chain; also called clone #3; purified antibody 3
B5: no binding (tested: 3 µg/ml).

B6: antibody 34 (antibody, V domains shown)
VH: QVTLKESGPGILQPSQTLSLTCSFSGFSLSTFSLGVGWIRQSSGKGLEWLAHIWWDDEKYYNPALKSRLTISKDTSKNQVFLKIANVDAADTATYYCARAYYSKSYYALDYWGQGTSVTVSS
VL: DIQMTQSPSSLSASLGERVSLTCRASQEISGYLSWLQQKPDGTIKRLIYAASTLDSGVPKRFSGSRSGSDYSLAISSLESEDFADYYCLQYANFPFTFGSGTKLEIK
notes: mouse IgG, kappa light chain; also called clone #34; purified antibody 34
B6: no binding (tested: 3 µg/ml).

B7: antibody 43 (antibody, V domains shown)
VH: B2 VH with T3A, P42S, H52N, E58D, S63P, A74D, T75A, S101G, N111D
VL: B4 VL with L1Q, K18R, G24S, T26N, F33Y, V45L, V77M, V82A, Y86N, N91S
notes: mouse IgG, kappa light chain; also called clone #43; purified antibody 43
B7: no binding (tested: 3 µg/ml).

B8: antibody 44 (antibody, V domains shown)
VH: B2 VH with G44E, E58D, S63P, A74D, A80I, A85T, D91E, A98S, S101G, N111D
VL: QIVLTQSPAVMSASPGEKVTMTCTASSSVYYMYWYQQTPGSSPRLLIYDTSNLASGVPVRFSGSGSGTSYSLTISRMEAEDAATYYCQQWNTYPLTFGAGTKLELK
notes: mouse IgG, kappa light chain; also called clone #44; purified antibody 44
B8: no binding (tested: 3 µg/ml).
